Test results reported in patent US20210030885A1, “HUMANIZED ANTI-LIV1 ANTIBODIES FOR THE TREATMENT OF CANCER” (priority 2019, published 2021).

Tested on: patients with metastatic breast cancer
Assay: Phase 1 dose-escalation study, safety and tolerability of weekly LV (Day 1, 8, 15 of 3-week cycle)
Format: in vivo, human
Excerpt: This is a phase 1, open label, dose escalation study to evaluate the safety and tolerability of ladiratuzumab vedotin (LV) in patients with metastatic breast cancer.
Eligible patients are females at least 18 years of age who have incurable, unresectable, locally advanced or metastatic breast cancer (LA/mBC). Patients must have pathologically and radiologically confirmed hormone receptor-positive/human epidermal growth factor 2 negative (HR+/HER2−) or metastatic triple-negative breast cancer (mTNBC) with at least 1 measurable lesion per RECIST v1.1. Subjects with HR+/HER2− disease must have received no more than 1 prior line of cytotoxic chemotherapy in the locally advanced (LA)/mBC setting, either as single agent or combination therapy. Subjects with TNBC must have received 1 prior line of cytotoxic chemotherapy in the LA/mBC setting. Progression within 6 months of completion of neoadjuvant therapy is considered an LA/mBC regimen. Enrollment is open to all patients, irrespective of their LIV-1 expression level. Available and adequate archival baseline tumor sample is required. A fresh biopsy sample may be submitted in place of an archival sample if medically feasible.
Up to […] will be enrolled (42 HR+/HER2− and 42 mTNBC) into dose escalation and dose-expansion cohorts. Patients will receive LV on Day 1, Day 8, and Day 15 in every 3-week cycle. The study will have dose escalation and expansions cohorts. Patients with HR+/HER2− and TN disease will be enrolled into separate dose-expansion cohorts for each dose level.
Dose escalation will be conducted using the modified toxicity probability interval (mTPI) method according to Ji Y. et al. Clin Trials 7(6):653-63 (2010). Only 1 dose-escalation cohort will be open at a time. Dose-expansion cohorts may be opened at any dose level that has cleared dose-limiting toxicity (DLT) evaluation. Initially, up to approximately 10 patients will be enrolled at each dose level. DLT evaluation will only include data from the dose-escalation cohorts, but the totality of data from all patients at each dose level will be used to determine the recommended weekly LV dose.
LV will be administered at a dose of 0.75 mg/kg to 1.75 mg/kg by intravenous infusion over the course of 30 minutes on Day 1, Day 8, and Day 15 in every 3-week cycle.
The DLT evaluation period is the first treatment cycle (3 weeks). A DLT will be defined as any AE≥Grade 3, according to the NCI CTCAE v4.03, that is possibly, probably, or definitely related to treatment with LV, unless evidence exists that the AE has an etiology other than the investigational agent (e.g., disease progression, pre-existing medical condition, underlying disease, intercurrent illness, or concomitant medication), and/or the event has no plausible temporal relationship to administration of the investigational agent.
Patients were enrolled in the study described in Example 19. Patients had either first or second line endocrine refractory HR+/HER2− metastatic breast cancer or second line metastatic triple negative breast cancer (TNBC). LV was administered at a dose of 1.0 mg/kg, 1.25 mg/kg, or 1.5 mg/kg by intravenous infusion over the course of 30 minutes on Day 1, Day 8, and Day 15 in every 3-week cycle as described in Example 19.

Substance: ladiratuzumab vedotin [LV]
- Grade 5 ischemic colitis, subjects (1 mg/kg LV, unrelated to treatment): *Grade 5 ischemic colitis was observed in 1 subject treated with 1 mg/kg LV. This was unrelated to treatment.
- Grade 3 or higher TEAE: Any Adverse Event (1.0 mg/kg Q1W, n = 20): 12 (60%) n (%)
- Grade 3 or higher TEAE: Diarrhoea (1.0 mg/kg Q1W, n = 20): 1 (5%) n (%)
- Grade 3 or higher TEAE: Fatigue (1.0 mg/kg Q1W, n = 20): 4 (20%) n (%)
- Grade 3 or higher TEAE: Hyperglycemia (1.0 mg/kg Q1W, n = 20): 3 (15%) n (%)
- Grade 3 or higher TEAE: Hypophosphataemia (1.0 mg/kg Q1W, n = 20): 1 (5%) n (%)
- Grade 3 or higher TEAE: Myalgia (1.0 mg/kg Q1W, n = 20): 0 n (%)
- Grade 3 or higher TEAE: Nausea (1.0 mg/kg Q1W, n = 20): 1 (5%) n (%)
- Grade 3 or higher TEAE: Neutropenia (1.0 mg/kg Q1W, n = 20): 2 (10%) n (%)
- Grade 3 or higher TEAE: Neutrophil count decreased (1.0 mg/kg Q1W, n = 20): 1 (5%) n (%)
- Grade 3 or higher TEAE: Peripheral Sensory Neuropathy (1.0 mg/kg Q1W, n = 20): 3 (15%) n (%)
- SAE: Anaemia (1.0 mg/kg Q1W, n = 20): 1 (5%) n (%)
- SAE: Any Adverse Event (1.0 mg/kg Q1W, n = 20): 5 (25%) n (%)
- SAE: Colitis (1.0 mg/kg Q1W, n = 20): 1 (5%) n (%)
- SAE: Dehydration (1.0 mg/kg Q1W, n = 20): 1 (5%) n (%)
- SAE: Diabetic ketoacidosis (1.0 mg/kg Q1W, n = 20): 1 (5%) n (%)
- SAE: Dyspnoea (1.0 mg/kg Q1W, n = 20): 2 (10%) n (%)
- SAE: Embolism (1.0 mg/kg Q1W, n = 20): 1 (5%) n (%)
- SAE: Fatigue (1.0 mg/kg Q1W, n = 20): 1 (5%) n (%)
- SAE: Febrile neutropenia (1.0 mg/kg Q1W, n = 20): 1 (5%) n (%)
- SAE: Hyperglycaemia (1.0 mg/kg Q1W, n = 20): 1 (5%) n (%)
- SAE: Pneumonia (1.0 mg/kg Q1W, n = 20): 0 n (%)
- Grade 3 or higher TEAE: Any Adverse Event (1.25 mg/kg Q1W, n = 18): 14 (78%) n (%)
- Grade 3 or higher TEAE: Diarrhoea (1.25 mg/kg Q1W, n = 18): 1 (6%) n (%)
- Grade 3 or higher TEAE: Fatigue (1.25 mg/kg Q1W, n = 18): 2 (11%) n (%)
- Grade 3 or higher TEAE: Hyperglycemia (1.25 mg/kg Q1W, n = 18): 1 (6%) n (%)
- Grade 3 or higher TEAE: Hypophosphataemia (1.25 mg/kg Q1W, n = 18): 2 (11%) n (%)
- Grade 3 or higher TEAE: Myalgia (1.25 mg/kg Q1W, n = 18): 1 (6%) n (%)
- Grade 3 or higher TEAE: Nausea (1.25 mg/kg Q1W, n = 18): 1 (6%) n (%)
- Grade 3 or higher TEAE: Neutropenia (1.25 mg/kg Q1W, n = 18): 4 (22%) n (%)
- Grade 3 or higher TEAE: Neutrophil count decreased (1.25 mg/kg Q1W, n = 18): 1 (6%) n (%)
- Grade 3 or higher TEAE: Peripheral Sensory Neuropathy (1.25 mg/kg Q1W, n = 18): 6 (33%) n (%)
- SAE: Anaemia (1.25 mg/kg Q1W, n = 18): 0 n (%)
- SAE: Any Adverse Event (1.25 mg/kg Q1W, n = 18): 5 (28%) n (%)
- SAE: Colitis (1.25 mg/kg Q1W, n = 18): 0 n (%)
- SAE: Dehydration (1.25 mg/kg Q1W, n = 18): 0 n (%)
- SAE: Diabetic ketoacidosis (1.25 mg/kg Q1W, n = 18): 0 n (%)
- SAE: Dyspnoea (1.25 mg/kg Q1W, n = 18): 1 (6%) n (%)
- SAE: Embolism (1.25 mg/kg Q1W, n = 18): 0 n (%)
- SAE: Fatigue (1.25 mg/kg Q1W, n = 18): 0 n (%)
- SAE: Febrile neutropenia (1.25 mg/kg Q1W, n = 18): 0 n (%)
- SAE: Hyperglycaemia (1.25 mg/kg Q1W, n = 18): 1 (6%) n (%)
- SAE: Pneumonia (1.25 mg/kg Q1W, n = 18): 2 (11%) n (%)
- Grade 3 or higher TEAE: Any Adverse Event (1.5 mg/kg Q1W, n = 2): 2 (100%) n (%)
- Grade 3 or higher TEAE: Myalgia (1.5 mg/kg Q1W, n = 2): 1 (50%) n (%)
- Grade 3 or higher TEAE: Neutropenia (1.5 mg/kg Q1W, n = 2): 1 (50%) n (%)
- SAE: Anaemia (1.5 mg/kg Q1W, n = 2): 0 n (%)
- SAE: Any Adverse Event (1.5 mg/kg Q1W, n = 2): 1 (50%) n (%)
- SAE: Colitis (1.5 mg/kg Q1W, n = 2): 0 n (%)
- SAE: Dehydration (1.5 mg/kg Q1W, n = 2): 0 n (%)
- SAE: Diabetic ketoacidosis (1.5 mg/kg Q1W, n = 2): 0 n (%)
- SAE: Dyspnoea (1.5 mg/kg Q1W, n = 2): 0 n (%)
- SAE: Embolism (1.5 mg/kg Q1W, n = 2): 0 n (%)
- SAE: Fatigue (1.5 mg/kg Q1W, n = 2): 0 n (%)
- SAE: Febrile neutropenia (1.5 mg/kg Q1W, n = 2): 0 n (%)
- SAE: Hyperglycaemia (1.5 mg/kg Q1W, n = 2): 0 n (%)
- SAE: Pneumonia (1.5 mg/kg Q1W, n = 2): 0 n (%)
- incidence of a variety of adverse events, Q1W vs Q3W (3.0-4.5 mg/kg per 3 weeks on Q1W vs. 2.5 mg/kg on Q3W): lower incidence
- dose limiting toxicities (Dose level 0 (1 mg/kg Q1W), +1 (1.25 mg/kg Q1W), +2 (1.5 mg/kg Q1W)): no dose limiting toxicities observed
- Adverse event incidence: Abdominal Pain (Q1W, N = 40): 7 (18%)
- Adverse event incidence: Alopecia (Q1W, N = 40): 10 (25%)
- Adverse event incidence: Constipation (Q1W, N = 40): 10 (25%)
- Adverse event incidence: Decreased Appetite (Q1W, N = 40): 11 (28%)
- Adverse event incidence: Diarrhea (Q1W, N = 40): 11 (28%)
- Adverse event incidence: Fatigue (Q1W, N = 40): 18 (45%)
- Adverse event incidence: Hypokalemia (Q1W, N = 40): 4 (10%)
- Adverse event incidence: Nausea (Q1W, N = 40): 14 (35%)
- Adverse event incidence: Neutropenia (Q1W, N = 40): 10 (25%)
- Adverse event incidence: Peripheral Sensory Neuropathy (Q1W, N = 40): 9 (23%)
- Adverse event incidence: Vomiting (Q1W, N = 40): 8 (20%)
- Grade 3 or higher TEAE: Any Adverse Event (Total, all Q1W doses, n = 40): 28 (70%) n (%)
- Grade 3 or higher TEAE: Diarrhoea (Total, all Q1W doses, n = 40): 2 (5%) n (%)
- Grade 3 or higher TEAE: Fatigue (Total, all Q1W doses, n = 40): 6 (15%) n (%)
- Grade 3 or higher TEAE: Hyperglycemia (Total, all Q1W doses, n = 40): 4 (10%) n (%)
- Grade 3 or higher TEAE: Hypophosphataemia (Total, all Q1W doses, n = 40): 3 (8%) n (%)
- Grade 3 or higher TEAE: Myalgia (Total, all Q1W doses, n = 40): 2 (5%) n (%)
- Grade 3 or higher TEAE: Nausea (Total, all Q1W doses, n = 40): 2 (5%) n (%)
- Grade 3 or higher TEAE: Neutropenia (Total, all Q1W doses, n = 40): 7 (18%) n (%)
- Grade 3 or higher TEAE: Neutrophil count decreased (Total, all Q1W doses, n = 40): 2 (5%) n (%)
- Grade 3 or higher TEAE: Peripheral Sensory Neuropathy (Total, all Q1W doses, n = 40): 9 (23%) n (%)
- SAE: Anaemia (Total, all Q1W doses, n = 40): 1 (3%) n (%)
- SAE: Any Adverse Event (Total, all Q1W doses, n = 40): 11 (28%) n (%)
- SAE: Colitis (Total, all Q1W doses, n = 40): 1 (3%) n (%)
- SAE: Dehydration (Total, all Q1W doses, n = 40): 1 (3%) n (%)
- SAE: Diabetic ketoacidosis (Total, all Q1W doses, n = 40): 1 (3%) n (%)
- SAE: Dyspnoea (Total, all Q1W doses, n = 40): 3 (8%) n (%)
- SAE: Embolism (Total, all Q1W doses, n = 40): 1 (3%) n (%)
- SAE: Fatigue (Total, all Q1W doses, n = 40): 1 (3%) n (%)
- SAE: Febrile neutropenia (Total, all Q1W doses, n = 40): 1 (3%) n (%)
- SAE: Hyperglycaemia (Total, all Q1W doses, n = 40): 2 (5%) n (%)
- SAE: Pneumonia (Total, all Q1W doses, n = 40): 2 (5.%) n (%)
